The source of these data is the supplement of paper PMC9112550, “Optimization of the antimicrobial peptide Bac7 by deep mutational scanning” (BMC Biology, 2022).
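Note: peptides expressed intracellularly from a pBAD plasmid library in pooled LB shake-flask culture, induced with 0.3% L-arabinose, DNA abundance read by NGS, three biological replicates, DESeq2 with apeglm shrinkage.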

This series deals with Escherichia coli TOP10. Description: shrunken log2 fold change of peptide-encoding DNA abundance (4.5 h post-induction vs induction); higher = less antimicrobial activity (less host growth inhibition). Particulars: time post-induction: 4.5 h; library: site-saturation at positions 5, 18, 19, 20.
Consider RRIRSRPPRLPRPRPRPDIHPRP, for which the “shrunken log2 fold change” value is -1.3.
In the case of RRIRVRPPRLPRPRPRPRQRPRP it was 0.622.
The figure for RRIRERPPRLPRPRPRPIIYPRP is -0.412.
The figure for RRIRKRPPRLPRPRPRPFEFPRP is 0.0169.
Regarding RRIRARPPRLPRPRPRPLWTPRP, the “shrunken log2 fold change” value is 0.115.
In the case of RRIRWRPPRLPRPRPRPFRRPRP, the “shrunken log2 fold change” value was -0.134.
In the case of RRIRIRPPRLPRPRPRPPYTPRP it was -0.822.
The figure for RRIRDRPPRLPRPRPRPEAPPRP is 0.412; for RRIRQRPPRLPRPRPRPVGVPRP it is 0.475; for RRIRKRPPRLPRPRPRPKCAPRP it is 0.283.
The figure for RRIRHRPPRLPRPRPRPLKSPRP is -0.178; for RRIRMRPPRLPRPRPRPIIRPRP it is 0.0027.
Consider RRIRWRPPRLPRPRPRPARKPRP, for which the “shrunken log2 fold change” value is -0.0849.
The figure for RRIRRRPPRLPRPRPRPPFNPRP is 0.333; for RRIRKRPPRLPRPRPRPALTPRP it is 0.622; for RRIRLRPPRLPRPRPRPINKPRP it is -0.617.
The figure for RRIRFRPPRLPRPRPRPWTLPRP is -0.259; for RRIRMRPPRLPRPRPRPLRHPRP it is 1.98.
The figure for RRIRERPPRLPRPRPRPTMCPRP is 0.292.
Consider RRIRVRPPRLPRPRPRPCHCPRP, for which the “shrunken log2 fold change” value is -0.373.
The figure for RRIRRRPPRLPRPRPRPCVSPRP is 0.0908.
Take RRIRDRPPRLPRPRPRPDWYPRP: the “shrunken log2 fold change” value was -0.0602.
In the case of RRIRSRPPRLPRPRPRPMFRPRP it was -0.338.
The figure for RRIRARPPRLPRPRPRPRFPPRP is 0.421; for RRIRKRPPRLPRPRPRPPVHPRP it is 0.273.
The figure for RRIRDRPPRLPRPRPRPSVSPRP is 0.0104; for RRIRQRPPRLPRPRPRPVWYPRP it is -0.254.
For the sequence RRIRYRPPRLPRPRPRPHQVPRP, the “shrunken log2 fold change” value is -0.208.
As to RRIRPRPPRLPRPRPRPPPTPRP, the “shrunken log2 fold change” value turned out to be 0.761.
The figure for RRIRHRPPRLPRPRPRPPTPPRP is 0.518; for RRIRMRPPRLPRPRPRPIWSPRP it is 0.0584; for RRIRIRPPRLPRPRPRPWIAPRP it is -0.717.
In the case of RRIRQRPPRLPRPRPRPDTPPRP it was -0.039.
In the case of RRIRHRPPRLPRPRPRPRCCPRP it was -0.079; in that of RRIRSRPPRLPRPRPRPPEYPRP, -0.154; in that of RRIRQRPPRLPRPRPRPCLPPRP, -0.186.
For the sequence RRIRRRPPRLPRPRPRPHRQPRP, the “shrunken log2 fold change” value was 0.0248.
The figure for RRIRVRPPRLPRPRPRPAEIPRP is -0.0984; for RRIRFRPPRLPRPRPRPSILPRP it is -0.442.
With RRIRIRPPRLPRPRPRPERMPRP, the “shrunken log2 fold change” value is -0.0641.
The figure for RRIRLRPPRLPRPRPRPGNTPRP is -0.242; for RRIRLRPPRLPRPRPRPWNIPRP it is -0.176; for RRIRFRPPRLPRPRPRPWPGPRP it is 0.112.
As to RRIRARPPRLPRPRPRPNISPRP, the “shrunken log2 fold change” value is 0.0983.
The figure for RRIRKRPPRLPRPRPRPDLPPRP is 0.222.
Turning to RRIRERPPRLPRPRPRPTMMPRP, the “shrunken log2 fold change” value is -0.0968.
In the case of RRIRKRPPRLPRPRPRPSNGPRP it was -0.00174.
In the case of RRIRIRPPRLPRPRPRPELAPRP it was 0.254; in that of RRIRYRPPRLPRPRPRPGFAPRP, -0.00507; in that of RRIRRRPPRLPRPRPRPEGCPRP, 0.863.
The figure for RRIRMRPPRLPRPRPRPTMSPRP is -0.148.
Regarding RRIRFRPPRLPRPRPRPYMRPRP, the “shrunken log2 fold change” value was found to be 0.00487.
The figure for RRIRGRPPRLPRPRPRPFQCPRP is -0.0282.
RRIRCRPPRLPRPRPRPQFFPRP: the “shrunken log2 fold change” value is -0.433.
The figure for RRIRERPPRLPRPRPRPLARPRP is 0.179; for RRIRGRPPRLPRPRPRPQGFPRP it is 0.441; for RRIRKRPPRLPRPRPRPIFWPRP it is 0.313.
The figure for RRIRFRPPRLPRPRPRPYEFPRP is -0.245.
The figure for RRIRMRPPRLPRPRPRPFVGPRP is 0.0187; for RRIRQRPPRLPRPRPRPIWGPRP it is -0.105.
RRIRHRPPRLPRPRPRPKTWPRP: the “shrunken log2 fold change” value was -0.0101.
In the case of RRIRHRPPRLPRPRPRPLSIPRP it was -0.326; in that of RRIRLRPPRLPRPRPRPVQCPRP, 0.079; in that of RRIRWRPPRLPRPRPRPQSIPRP, -0.584.
In the case of RRIRYRPPRLPRPRPRPAWCPRP it was -0.0756.
The figure for RRIRSRPPRLPRPRPRPDDHPRP is -0.0124; for RRIRYRPPRLPRPRPRPIGQPRP it is 0.013; for RRIRDRPPRLPRPRPRPAPFPRP it is 0.196.
As for RRIRDRPPRLPRPRPRPEPYPRP, the “shrunken log2 fold change” value was 0.118.
As for RRIRLRPPRLPRPRPRPHMWPRP, the “shrunken log2 fold change” value was -0.325.
The figure for RRIRNRPPRLPRPRPRPAACPRP is -0.0409.
In the case of RRIRNRPPRLPRPRPRPHKRPRP it was -0.263.
The figure for RRIRGRPPRLPRPRPRPNYRPRP is 0.0016.
Turning to RRIRYRPPRLPRPRPRPNSIPRP, the “shrunken log2 fold change” value was -0.737.
The figure for RRIRKRPPRLPRPRPRPPFTPRP is 0.243; for RRIRERPPRLPRPRPRPWNAPRP it is 0.0455; for RRIRLRPPRLPRPRPRPKSSPRP it is 0.0397.
As to RRIRERPPRLPRPRPRPVDVPRP, the “shrunken log2 fold change” value was 0.064.
The figure for RRIRRRPPRLPRPRPRPVYFPRP is -0.267; for RRIRPRPPRLPRPRPRPPIFPRP it is -0.246.
In the case of RRIRDRPPRLPRPRPRPRREPRP it was 0.281; in that of RRIRPRPPRLPRPRPRPCVQPRP, 0.283; in that of RRIRGRPPRLPRPRPRPENFPRP, 0.0598.
In the case of RRIRPRPPRLPRPRPRPDHPPRP it was -0.147; in that of RRIRQRPPRLPRPRPRPFVYPRP, -0.755; in that of RRIRTRPPRLPRPRPRPDSGPRP, -0.0764.
Consider RRIRNRPPRLPRPRPRPWFFPRP, for which the “shrunken log2 fold change” value is -0.0137.
In the case of RRIRLRPPRLPRPRPRPYAIPRP it was -0.233; in that of RRIRFRPPRLPRPRPRPEVDPRP, 0.084.
As to RRIRYRPPRLPRPRPRPEMSPRP, the “shrunken log2 fold change” value was -0.343.
For the sequence RRIRNRPPRLPRPRPRPDHHPRP, the “shrunken log2 fold change” value is 0.109.
